Earlier results as cited in paper PMC3253530.
pKd: −log10 of the molar value. Where two headings read alike, the source gives them in different places.

What was measured:
PTPζ (Homo sapiens) [1] = target: PTPζ (Homo sapiens) (UniProt P23471)
LRP-1 (Homo sapiens) = LRP-1 (Homo sapiens) (UniProt Q07954)
PTPζ (Homo sapiens) [2] = target: PTPζ (Homo sapiens) (UniProt P23471); remark: listed apart in the source

Chain of UniProt P23471 (P23471 25-1636): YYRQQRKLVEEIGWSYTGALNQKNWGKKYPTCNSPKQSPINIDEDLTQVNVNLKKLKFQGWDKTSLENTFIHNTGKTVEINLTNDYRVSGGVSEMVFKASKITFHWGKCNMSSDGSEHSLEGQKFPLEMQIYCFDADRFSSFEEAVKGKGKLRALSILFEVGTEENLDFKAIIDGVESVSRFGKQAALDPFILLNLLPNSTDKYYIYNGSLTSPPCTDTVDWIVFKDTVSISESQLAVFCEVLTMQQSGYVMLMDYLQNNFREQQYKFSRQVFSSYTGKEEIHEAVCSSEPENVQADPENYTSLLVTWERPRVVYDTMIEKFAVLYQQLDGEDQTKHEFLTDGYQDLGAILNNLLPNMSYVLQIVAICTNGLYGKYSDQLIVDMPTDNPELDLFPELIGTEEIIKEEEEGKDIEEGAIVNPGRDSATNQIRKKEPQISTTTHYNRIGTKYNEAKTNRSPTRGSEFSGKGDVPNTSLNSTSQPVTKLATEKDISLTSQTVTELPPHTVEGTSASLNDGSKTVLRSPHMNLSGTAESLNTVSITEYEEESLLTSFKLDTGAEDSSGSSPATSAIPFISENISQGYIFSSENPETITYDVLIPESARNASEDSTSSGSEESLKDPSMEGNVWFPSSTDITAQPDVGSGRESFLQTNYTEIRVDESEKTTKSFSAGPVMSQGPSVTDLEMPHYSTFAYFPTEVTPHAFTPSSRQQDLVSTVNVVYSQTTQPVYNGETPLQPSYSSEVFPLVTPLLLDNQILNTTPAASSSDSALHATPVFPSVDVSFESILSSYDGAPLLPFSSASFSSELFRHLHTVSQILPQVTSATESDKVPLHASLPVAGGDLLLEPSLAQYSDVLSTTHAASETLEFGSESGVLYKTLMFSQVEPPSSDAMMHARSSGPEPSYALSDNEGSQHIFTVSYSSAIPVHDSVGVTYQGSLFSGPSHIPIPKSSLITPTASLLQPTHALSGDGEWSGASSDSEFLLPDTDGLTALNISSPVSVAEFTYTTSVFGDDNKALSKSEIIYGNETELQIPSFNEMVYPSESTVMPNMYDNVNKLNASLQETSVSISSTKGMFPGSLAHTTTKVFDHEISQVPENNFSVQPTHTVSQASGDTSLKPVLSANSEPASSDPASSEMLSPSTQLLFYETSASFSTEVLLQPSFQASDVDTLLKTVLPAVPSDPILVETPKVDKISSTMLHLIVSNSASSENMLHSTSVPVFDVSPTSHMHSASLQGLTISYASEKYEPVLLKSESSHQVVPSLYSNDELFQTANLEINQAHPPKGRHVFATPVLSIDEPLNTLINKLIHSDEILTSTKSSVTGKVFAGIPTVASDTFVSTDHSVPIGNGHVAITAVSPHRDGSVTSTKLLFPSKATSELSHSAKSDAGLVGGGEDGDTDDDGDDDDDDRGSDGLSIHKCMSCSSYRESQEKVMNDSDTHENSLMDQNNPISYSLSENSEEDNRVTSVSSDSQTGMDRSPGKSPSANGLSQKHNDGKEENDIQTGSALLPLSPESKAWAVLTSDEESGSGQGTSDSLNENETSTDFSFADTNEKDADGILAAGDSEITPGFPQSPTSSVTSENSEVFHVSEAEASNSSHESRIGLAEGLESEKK

pKd (PTPζ (Homo sapiens) [1]): 9.25
pKd (LRP-1 (Homo sapiens)): 8.46
pKd (PTPζ (Homo sapiens) [2]): 8.06
Substance: Midkine (from UniProt P21741)
